The text below walks through data of paper PMC9508855.

Data set [1] deals with T1, FnCas12a ΔBH (Francisella novicida, UniProt A0Q7Q2 1-1300, del953-969). Put plainly: EMSA.
Data set [2] deals with T2, FnCas12a Δh1 (Francisella novicida, UniProt A0Q7Q2 1-1300, del972-1000). Put plainly: EMSA.
Data set [3] addresses T3, FnCas12a ΔBH/Δh1 (Francisella novicida, UniProt A0Q7Q2 1-1300, del953-1000). Put plainly: EMSA.
Data set [4] has as its target T1, FnCas12a ΔBH. Kind of data set: EMSA. This is another data set of the same source.
For data set [5], the target named is T2, FnCas12a Δh1. Kind of data set: EMSA. This is another data set of the same source.
Data set [6] has as its target T3, FnCas12a ΔBH/Δh1. Kind of data set: EMSA. This is another data set of the same source.
Data set [7] has as its target FnCas12a ΔΔBH (Francisella novicida, UniProt A0Q7Q2 1-1300, del953-971). Put plainly: EMSA.
Data set [8] concerns the target FnCas12a WT (Francisella novicida, UniProt A0Q7Q2 1-1300). Put plainly: mass photometry.

B1: crRNA-Cy5 (43 nt) (structured_RNA)
RNA: AAUUUCUACUGUUGUAGAUGUGAUAAGUGGAAUGCCAUGUGGG
B1: the binding signal is ~50 % of WT in data set [1], 10.7 % of WT in data set [2] and 22.9 % of WT in data set [3].

B2: crRNA + 58 bp target DNA MM 0 (labeled) (mixed)
RNA: AAUUUCUACUGUUGUAGAUGUGAUAAGUGGAAUGCCAUGUGGG
DNA 1: ACTCAATTTTGACAGCCCACATGGCATTCCACTTATCACTAAAGGCATCCTTCCACGT
DNA 2: ACGTGGAAGGATGCCTTTAGTGATAAGTGGAATGCCATGTGGGCTGTCAAAATTGAGT
On to B2, for which the binding result is “binds” in data set [4], “no binding” in data set [5], “no binding” in data set [6] and “no binding” in data set [7].

B3: crRNA (43 nt) (structured_RNA)
RNA: AAUUUCUACUGUUGUAGAUGUGAUAAGUGGAAUGCCAUGUGGG
Turning to B3, in data set [8], the binding result was “binds”.
